One molecule from US20210063414A1, “METHODS FOR PREVENTING AND/OR TREATING BONE LOSS CONDITIONS BY MODULATING IRISIN” (Dana-Farber Cancer Institute, Inc., priority 2018, published 2021) can be followed below.

Test in all cases: Crosslinking/co-immunoprecipitation/mass spectrometry (TMT quantitative proteomics) to identify irisin receptors
What all share (type): binding

In experiment [1] the target is T1, MLO-Y4 cell surface proteins (Mus musculus, UniProt Q8JZN5).
T1 construct: endogenous in cells; host or cells: MLO-Y4
T1 sequence (Q8JZN5 42-625): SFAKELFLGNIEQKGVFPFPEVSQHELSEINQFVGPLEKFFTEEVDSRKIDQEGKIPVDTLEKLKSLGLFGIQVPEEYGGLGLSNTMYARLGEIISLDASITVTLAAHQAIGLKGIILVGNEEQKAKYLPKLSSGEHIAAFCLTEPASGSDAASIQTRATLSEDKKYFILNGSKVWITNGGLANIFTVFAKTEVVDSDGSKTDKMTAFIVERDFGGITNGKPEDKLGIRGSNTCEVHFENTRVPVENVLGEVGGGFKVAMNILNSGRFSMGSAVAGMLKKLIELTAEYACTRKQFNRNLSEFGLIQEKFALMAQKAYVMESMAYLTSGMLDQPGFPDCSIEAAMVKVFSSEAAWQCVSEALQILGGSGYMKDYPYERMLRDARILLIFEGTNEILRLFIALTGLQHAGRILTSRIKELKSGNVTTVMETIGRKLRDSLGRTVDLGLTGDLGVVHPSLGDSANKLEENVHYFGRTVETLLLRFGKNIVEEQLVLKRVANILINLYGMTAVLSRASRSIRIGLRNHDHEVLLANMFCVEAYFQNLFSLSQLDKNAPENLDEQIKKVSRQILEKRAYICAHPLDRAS
The note with it: co-precipitated protein Acad9 (ACAD9_MOUSE). Put shortly:
(§1)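 Relative protein abundance came from 6-plex TMT MS3 quantitation on an Orbitrap Fusion Lumos, after in-gel trypsin digestion of Coomassie-stained SDS-PAGE lanes. Input was a Ni-NTA pulldown (250 mM imidazole elution) of lysates from murine MLO-Y4 cells. These cells were treated on ice with His-tagged irisin or adipsin (10 nM, 20 min) in serum-free medium, then crosslinked with 1.5 mM DTSSP for 30 min.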

Experiment [2] concerns the target T2, MLO-Y4 cell surface proteins (Mus musculus, UniProt Q6ZQ93).
T2 construct: endogenous in cells; host or cells: MLO-Y4
The settings on record: co-precipitated protein Usp34 (UBP34_MOUSE). The essentials: as §1

Experiment [3] has as its target T3, MLO-Y4 cell surface proteins (Mus musculus, UniProt Q8BFT2).
T3 construct: endogenous in cells; host or cells: MLO-Y4
T3 sequence (Q8BFT2 1-363): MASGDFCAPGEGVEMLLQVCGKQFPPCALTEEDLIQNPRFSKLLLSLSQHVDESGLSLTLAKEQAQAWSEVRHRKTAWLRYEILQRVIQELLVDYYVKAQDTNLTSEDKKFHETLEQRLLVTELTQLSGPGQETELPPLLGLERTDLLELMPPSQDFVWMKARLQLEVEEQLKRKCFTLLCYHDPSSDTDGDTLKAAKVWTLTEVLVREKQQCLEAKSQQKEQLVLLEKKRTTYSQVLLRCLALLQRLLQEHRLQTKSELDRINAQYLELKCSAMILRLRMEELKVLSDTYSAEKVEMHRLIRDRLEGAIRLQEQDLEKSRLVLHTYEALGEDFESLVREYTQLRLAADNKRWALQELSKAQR
The note with it: co-precipitated protein Haus4 (HAUS4_MOUSE). The essentials:
as §1

Experiment [4] deals with T4, MLO-Y4 cell surface proteins (Mus musculus, UniProt C0HKE1).
T4 construct: endogenous in cells; host or cells: MLO-Y4
The settings on record: co-precipitated protein Hist1h2ab (H2A1_MOUSE). Put shortly:
as §1

T2 sequence (Q6ZQ93 whole entry): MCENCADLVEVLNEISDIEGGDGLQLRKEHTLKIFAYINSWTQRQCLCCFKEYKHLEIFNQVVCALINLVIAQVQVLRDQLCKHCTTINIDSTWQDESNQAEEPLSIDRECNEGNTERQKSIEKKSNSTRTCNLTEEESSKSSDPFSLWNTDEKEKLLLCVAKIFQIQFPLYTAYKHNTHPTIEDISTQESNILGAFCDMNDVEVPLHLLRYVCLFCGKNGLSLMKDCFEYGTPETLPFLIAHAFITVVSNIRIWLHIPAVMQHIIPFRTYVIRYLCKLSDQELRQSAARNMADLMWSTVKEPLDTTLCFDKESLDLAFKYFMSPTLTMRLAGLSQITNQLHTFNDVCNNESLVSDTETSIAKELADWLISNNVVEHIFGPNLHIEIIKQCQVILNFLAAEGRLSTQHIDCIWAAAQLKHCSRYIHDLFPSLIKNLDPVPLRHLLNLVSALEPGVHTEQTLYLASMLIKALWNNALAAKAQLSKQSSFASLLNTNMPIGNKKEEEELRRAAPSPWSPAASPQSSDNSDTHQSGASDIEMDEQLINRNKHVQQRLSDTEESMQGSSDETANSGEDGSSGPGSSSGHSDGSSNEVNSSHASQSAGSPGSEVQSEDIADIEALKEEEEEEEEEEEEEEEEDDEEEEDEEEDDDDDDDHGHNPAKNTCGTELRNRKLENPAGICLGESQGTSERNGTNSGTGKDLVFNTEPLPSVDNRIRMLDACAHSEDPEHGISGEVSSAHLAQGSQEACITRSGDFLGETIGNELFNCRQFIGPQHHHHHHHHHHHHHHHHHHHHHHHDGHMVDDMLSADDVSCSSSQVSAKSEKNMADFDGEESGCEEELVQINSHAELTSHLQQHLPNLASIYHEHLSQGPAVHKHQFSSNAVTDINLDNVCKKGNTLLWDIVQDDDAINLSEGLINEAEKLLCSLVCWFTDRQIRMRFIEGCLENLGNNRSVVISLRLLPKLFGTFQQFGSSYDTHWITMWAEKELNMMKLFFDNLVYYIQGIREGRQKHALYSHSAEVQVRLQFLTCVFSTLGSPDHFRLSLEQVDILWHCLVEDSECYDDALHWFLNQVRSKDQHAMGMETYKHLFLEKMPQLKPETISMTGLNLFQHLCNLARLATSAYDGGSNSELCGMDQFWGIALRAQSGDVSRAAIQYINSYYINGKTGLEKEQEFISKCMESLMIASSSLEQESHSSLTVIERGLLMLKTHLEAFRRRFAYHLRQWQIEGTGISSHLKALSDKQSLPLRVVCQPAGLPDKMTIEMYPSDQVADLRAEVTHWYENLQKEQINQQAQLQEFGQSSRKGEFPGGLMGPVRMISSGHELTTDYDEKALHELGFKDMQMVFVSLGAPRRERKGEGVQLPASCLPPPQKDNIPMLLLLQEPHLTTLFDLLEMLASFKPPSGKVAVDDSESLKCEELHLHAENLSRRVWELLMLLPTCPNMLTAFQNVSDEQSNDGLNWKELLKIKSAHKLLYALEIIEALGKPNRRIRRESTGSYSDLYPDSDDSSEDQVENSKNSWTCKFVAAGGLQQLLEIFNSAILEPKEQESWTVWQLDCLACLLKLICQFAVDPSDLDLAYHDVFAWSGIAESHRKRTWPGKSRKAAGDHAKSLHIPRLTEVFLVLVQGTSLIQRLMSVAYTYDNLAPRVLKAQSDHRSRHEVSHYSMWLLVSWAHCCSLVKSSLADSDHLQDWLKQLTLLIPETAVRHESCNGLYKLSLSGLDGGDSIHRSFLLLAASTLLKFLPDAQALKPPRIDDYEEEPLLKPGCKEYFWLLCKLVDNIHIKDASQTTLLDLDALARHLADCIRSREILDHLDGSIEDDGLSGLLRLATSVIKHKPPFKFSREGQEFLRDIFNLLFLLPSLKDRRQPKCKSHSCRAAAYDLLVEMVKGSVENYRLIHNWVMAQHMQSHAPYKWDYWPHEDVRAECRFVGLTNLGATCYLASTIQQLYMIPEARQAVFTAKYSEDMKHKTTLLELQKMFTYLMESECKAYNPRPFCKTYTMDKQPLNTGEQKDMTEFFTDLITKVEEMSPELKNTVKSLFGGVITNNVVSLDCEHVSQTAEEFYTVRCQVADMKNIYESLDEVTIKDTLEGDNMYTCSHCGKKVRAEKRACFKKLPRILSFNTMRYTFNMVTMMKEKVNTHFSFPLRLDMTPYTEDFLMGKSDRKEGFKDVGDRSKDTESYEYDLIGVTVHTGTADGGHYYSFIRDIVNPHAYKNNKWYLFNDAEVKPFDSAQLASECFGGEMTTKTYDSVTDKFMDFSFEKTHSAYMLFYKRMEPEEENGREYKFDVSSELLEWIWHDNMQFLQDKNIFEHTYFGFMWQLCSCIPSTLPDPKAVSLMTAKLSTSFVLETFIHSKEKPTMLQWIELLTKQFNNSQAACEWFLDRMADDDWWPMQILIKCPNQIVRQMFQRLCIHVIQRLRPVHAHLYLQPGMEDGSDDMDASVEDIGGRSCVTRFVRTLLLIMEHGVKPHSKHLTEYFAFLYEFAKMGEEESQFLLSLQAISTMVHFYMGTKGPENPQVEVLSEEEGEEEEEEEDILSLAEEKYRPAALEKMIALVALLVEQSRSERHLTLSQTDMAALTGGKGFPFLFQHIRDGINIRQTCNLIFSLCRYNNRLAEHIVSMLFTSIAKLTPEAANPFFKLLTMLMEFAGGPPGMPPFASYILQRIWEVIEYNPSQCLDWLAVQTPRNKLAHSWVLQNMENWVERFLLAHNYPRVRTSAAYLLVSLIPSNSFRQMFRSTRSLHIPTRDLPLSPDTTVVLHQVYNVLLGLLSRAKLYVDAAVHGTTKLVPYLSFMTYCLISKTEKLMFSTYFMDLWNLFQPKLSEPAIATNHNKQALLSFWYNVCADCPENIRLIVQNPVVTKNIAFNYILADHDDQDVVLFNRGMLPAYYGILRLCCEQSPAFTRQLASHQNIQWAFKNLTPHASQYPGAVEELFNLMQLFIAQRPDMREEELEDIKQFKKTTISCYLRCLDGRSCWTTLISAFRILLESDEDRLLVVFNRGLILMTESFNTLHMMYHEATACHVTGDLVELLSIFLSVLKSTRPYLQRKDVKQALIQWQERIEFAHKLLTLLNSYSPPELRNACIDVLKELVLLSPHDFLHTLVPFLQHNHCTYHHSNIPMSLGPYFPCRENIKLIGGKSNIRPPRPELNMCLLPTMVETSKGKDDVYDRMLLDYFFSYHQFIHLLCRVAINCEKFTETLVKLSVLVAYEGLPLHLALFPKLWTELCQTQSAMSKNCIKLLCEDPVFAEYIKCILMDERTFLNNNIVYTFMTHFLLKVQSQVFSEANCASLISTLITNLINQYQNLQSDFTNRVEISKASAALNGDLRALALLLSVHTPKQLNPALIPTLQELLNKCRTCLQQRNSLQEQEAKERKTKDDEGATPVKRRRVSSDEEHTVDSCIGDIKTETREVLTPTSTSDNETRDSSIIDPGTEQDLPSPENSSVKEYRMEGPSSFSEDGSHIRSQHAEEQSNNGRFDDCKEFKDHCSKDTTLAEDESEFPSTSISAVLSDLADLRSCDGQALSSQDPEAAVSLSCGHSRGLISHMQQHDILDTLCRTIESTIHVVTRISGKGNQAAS

B1: irisin: secreted cleaved form of FNDC5; recombinant human/mouse irisin with C-terminal his tag produced in HEK293 cells (protein)
chain: DSPSAPVNVTVRHLKANSAVVSWDVLEDEVVIGFAISQQKKDVRMLRFIQEVNTTTRSCALWDLEEDTEYIVHVQAISIQGQSPASEPVLFKTPREAEKMASKNKDEVTMKE
modifications: left off: small tags and cut ends
notes: secreted cleaved form of FNDC5; recombinant human/mouse irisin with C-terminal his tag produced in HEK293 cells
As for B1, the TMT signal-to-noise ratio is on record as 61.8219 in experiment [1], 98.0506 in experiment [2], 230.984 in experiment [3] and 119.978 in experiment [4]. For the same molecule, the “irisin/adipsin TMT signal-to-noise ratio” value is recorded as 0.486 in experiment [1], 0.094 in experiment [2], 0.446 in experiment [3] and 0.438 in experiment [4].
